# The supplement of paper PMC10065799, “High-throughput profiling of sequence recognition by tyrosine kinases and SH2 domains using bacterial peptide display” (eLife, 2023)
# Test system: c-Src;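 note: 11-residue human phosphosite peptides and single-mutation variants displayed on the E. coli surface, counted by deep sequencing, each peptide's frequency after selection divided by its frequency in the unselected input library; frequency after pTyr selection over input frequency; kinase dosed for 20-30% of maximal phosphorylation in three min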
# Assay: phosphorylation enrichment, bacterial display (enrichment ratio); higher = better substrate or ligand; peptides without Tyr show the background
# 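Throughout, for SH2 binding enrichment of the phosphorylated peptide, bacterial display: peptide library displayed on the E. coli surface as eCPX fusions, selected cells deep-sequenced, score is each peptide's frequency after selection divided by its frequency in the input.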
row,Sequence,phosphorylation enrichment
1,SPFAVYRFFTF [RPGRIP1_Y826_YF],0.91
2,CTTIHYYYMCN [TP53_Y234_N235Y],1.05
3,TFTVSYLPDMS [FLNC_Y1602_YF],0.478
4,SYSGEYGGGGG [ZG16_Y30],0.385
5,GVIRHSVVCST [BTK_Y334_Y334S],0.45
6,MENFIYESMRF [CYP19A1_Y361_YF],6.6
7,PNRILYGDFQQ [MYH7_Y715_R719Q],3.04
8,VFLGAYDCFLP [SLC22A5_Y486_R488C_YF],4.75
9,SIKDKYVTALF [KCNH2_Y611_YF],0.502
10,IRKKFYRAILE [CHD7_Y1218_Q1214R_YF],0.658
11,ANQDDYISFRH [IMP4_Y226],1.11
12,MGSYNYLGFAR [SPTLC2_Y178],1.1
13,FFWDGYMPRQF [GSS_Y270_R267W_YF],0.43
14,LTDRGYSFVTT [ACTA1_Y200_E197D],0.6
15,EAEPYYRSLRD [NPHS1_Y1139],0.601
16,VLSIDYFFPPQ [AR_Y552_P549S_YF],0.827
17,VDLSKCITTIA [FAS_Y232_Y232C],0.308

row,Sequence,phosphorylation enrichment
1,TWSSSYRSDRL [CRYBB1_Y131],0.451
2,RPSRWYQFPVA [ANOS1_Y259_R262P],0.648
3,KLIETYFSKNY [PLP1_Y50],0.41
4,AGKEEYSAMRD [HRAS_Y64_Q61K],0.436
5,SVVVPYERPEV [TP53_Y220_P222R],0.432
6,SEEVNYATLTF [CLEC12B_Y7_T6N],1.41
7,ATDLAYYLVRK [ASL_Y375],1.27
8,TLKDVYDDGKF [RPS6KA3_Y483_YF],0.625
9,SKLTIYDARPS [MTM1_Y277],2.05
10,FARNSYVAGQF [G6PD_Y107_YF],0.408
11,GDEEDYFEIPG [EGFR_opt_F_2015],0.628
12,PSGPMYRGAVP [ASAH1_Y43_T42M],0.334
13,VQSASYLNDCL [MCM3AP_Y864_A867D],0.422
14,YQLPYYNTVPS [BMPR1A_Y458_M460T],3.46
15,PTTKTYFPQFD [HBA1_Y43_H46Q],0.74
16,VGTKWYMAPEV [ACVRL1_Y375_R374W],0.416

# Molecular target: Grb2 SH2 (UniProt P62993)
# Assay: SH2 binding enrichment of the phosphorylated peptide, bacterial display (enrichment ratio); higher = better substrate or ligand; peptides without Tyr show the background
row,SH2 binding enrichment,Sequence
1,0.689,SPFAVYRFFTF [RPGRIP1_Y826_YF]
2,1.6,CTTIHYYYMCN [TP53_Y234_N235Y]
3,0.784,SYSGEYGGGGG [ZG16_Y30]
4,0.823,PNRILYGDFQQ [MYH7_Y715_R719Q]
5,0.947,VFLGAYDCFLP [SLC22A5_Y486_R488C_YF]
6,0.804,MGSYNYLGFAR [SPTLC2_Y178]
7,0.765,EAEPYYRSLRD [NPHS1_Y1139]
8,0.716,KLIETYFSKNY [PLP1_Y50]
9,0.889,SVVVPYERPEV [TP53_Y220_P222R]
10,0.781,TLKDVYDDGKF [RPS6KA3_Y483_YF]
11,0.792,SKLTIYDARPS [MTM1_Y277]

# The next lines start with the sequence.
row,Sequence,SH2 binding enrichment
1,TFTVSYLPDMS [FLNC_Y1602_YF],0.792
2,GVIRHSVVCST [BTK_Y334_Y334S],0.996
3,MENFIYESMRF [CYP19A1_Y361_YF],0.772
4,SIKDKYVTALF [KCNH2_Y611_YF],0.8
5,IRKKFYRAILE [CHD7_Y1218_Q1214R_YF],0.619
6,ANQDDYISFRH [IMP4_Y226],0.821
7,FFWDGYMPRQF [GSS_Y270_R267W_YF],1.05
8,LTDRGYSFVTT [ACTA1_Y200_E197D],0.988
9,VLSIDYFFPPQ [AR_Y552_P549S_YF],1.46
10,VDLSKCITTIA [FAS_Y232_Y232C],0.742
11,TWSSSYRSDRL [CRYBB1_Y131],0.997
12,RPSRWYQFPVA [ANOS1_Y259_R262P],1.79
13,AGKEEYSAMRD [HRAS_Y64_Q61K],0.867
14,SEEVNYATLTF [CLEC12B_Y7_T6N],0.762
15,ATDLAYYLVRK [ASL_Y375],1.25
16,FARNSYVAGQF [G6PD_Y107_YF],0.81
17,GDEEDYFEIPG [EGFR_opt_F_2015],0.875
18,PSGPMYRGAVP [ASAH1_Y43_T42M],0.926
19,VQSASYLNDCL [MCM3AP_Y864_A867D],2.03
20,YQLPYYNTVPS [BMPR1A_Y458_M460T],9.88
21,PTTKTYFPQFD [HBA1_Y43_H46Q],0.772
22,VGTKWYMAPEV [ACVRL1_Y375_R374W],0.956
